Assay results published in patent publication US20040265295A1 (WISCONSIN ALUMNI RESEARCH FOUNDATION, published 2004).
Ends that are not written are not given here.

Experiments:
[1] = target: T1, GST-talin head Lys^357->Gln mutant (human, UniProt Q9Y490 1-435); test: GST pull-down
T1 construct: Talin head mutant in pET42; also called mutant GST-talin; not shown: GST (and further tags) of the pET42 vector
Description: (§1) Purified GST-talin head proteins were incubated with PIPKIγ661 tails or β1-integrin tail, together with Glutathione SEPHAROSE™ 4 Fast Flow (Amersham Biosciences, Piscataway, N.J.), in Buffer B (PBS, 0.2% NP-40, 2 mM DTT) at 4° C. for 4 hours. The beads were washed three times with Buffer B and analyzed by western blot. For competition assays, GST-talin head proteins were incubated with peptides or competing proteins for 2 hours, then the binding proteins were added and the mixtures were incubated for another 4 hours.

[2] = target: T2, GST-talin head Arg^358->Gln mutant (human, UniProt Q9Y490 1-435); test: GST pull-down
T2 construct: Talin head mutant in pET42; also called mutant GST-talin; not shown: GST (and further tags) of the pET42 vector
T2 sequence (Q9Y490 other isoform, or with tags, fused parts or gaps mutant): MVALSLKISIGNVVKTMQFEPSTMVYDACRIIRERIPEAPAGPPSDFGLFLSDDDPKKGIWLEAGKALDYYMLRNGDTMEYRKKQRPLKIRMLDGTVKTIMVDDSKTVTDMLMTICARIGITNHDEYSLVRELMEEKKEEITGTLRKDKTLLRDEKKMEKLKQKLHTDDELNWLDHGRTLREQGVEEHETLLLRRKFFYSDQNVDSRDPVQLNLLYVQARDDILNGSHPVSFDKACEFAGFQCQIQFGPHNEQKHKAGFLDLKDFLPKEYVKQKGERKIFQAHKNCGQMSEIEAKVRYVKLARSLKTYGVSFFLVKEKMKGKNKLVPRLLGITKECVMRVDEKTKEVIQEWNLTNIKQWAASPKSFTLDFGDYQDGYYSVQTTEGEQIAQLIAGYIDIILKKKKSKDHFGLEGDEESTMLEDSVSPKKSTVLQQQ
Description: as §1

T1 sequence (Q9Y490 other isoform, or with tags, fused parts or gaps mutant): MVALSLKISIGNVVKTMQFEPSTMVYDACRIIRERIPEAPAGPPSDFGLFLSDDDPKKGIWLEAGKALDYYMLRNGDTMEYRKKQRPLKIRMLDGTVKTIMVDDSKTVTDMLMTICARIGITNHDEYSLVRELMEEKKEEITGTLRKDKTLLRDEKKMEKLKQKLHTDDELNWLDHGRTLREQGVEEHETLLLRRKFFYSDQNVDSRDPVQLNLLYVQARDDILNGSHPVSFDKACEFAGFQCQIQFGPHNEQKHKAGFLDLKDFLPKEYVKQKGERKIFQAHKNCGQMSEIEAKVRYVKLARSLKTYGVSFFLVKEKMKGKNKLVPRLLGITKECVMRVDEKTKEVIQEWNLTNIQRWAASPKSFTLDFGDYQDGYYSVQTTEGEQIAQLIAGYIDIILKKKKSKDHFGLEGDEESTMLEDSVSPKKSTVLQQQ

binding result [1]: no binding | binding result [2]: no binding
B1: His-tagged mouse β1-integrin tail (receptor, UniProt P09055 752-798, looked up)
chain: KLLMIIHDRREFAKFEKEKMNAKWDTGENPIYKSAVTTVVNPKYEGK
modifications: not fully specified (N-terminus); also: N-terminal His tag of pET28 vector, sequence not given here
notes: domain: tail; also called His-β1-integrin tail; His-β-integrin; not shown: His tag of the pET28 vector
